In US20210063414A1, “METHODS FOR PREVENTING AND/OR TREATING BONE LOSS CONDITIONS BY MODULATING IRISIN” (Dana-Farber Cancer Institute, Inc., priority 2018, published 2021):

Biological target: T1, MLO-Y4 cell surface proteins (Mus musculus, UniProt P97350)
T1 construct: endogenous in cells; host or cells: MLO-Y4
T1 sequence (P97350 1-728): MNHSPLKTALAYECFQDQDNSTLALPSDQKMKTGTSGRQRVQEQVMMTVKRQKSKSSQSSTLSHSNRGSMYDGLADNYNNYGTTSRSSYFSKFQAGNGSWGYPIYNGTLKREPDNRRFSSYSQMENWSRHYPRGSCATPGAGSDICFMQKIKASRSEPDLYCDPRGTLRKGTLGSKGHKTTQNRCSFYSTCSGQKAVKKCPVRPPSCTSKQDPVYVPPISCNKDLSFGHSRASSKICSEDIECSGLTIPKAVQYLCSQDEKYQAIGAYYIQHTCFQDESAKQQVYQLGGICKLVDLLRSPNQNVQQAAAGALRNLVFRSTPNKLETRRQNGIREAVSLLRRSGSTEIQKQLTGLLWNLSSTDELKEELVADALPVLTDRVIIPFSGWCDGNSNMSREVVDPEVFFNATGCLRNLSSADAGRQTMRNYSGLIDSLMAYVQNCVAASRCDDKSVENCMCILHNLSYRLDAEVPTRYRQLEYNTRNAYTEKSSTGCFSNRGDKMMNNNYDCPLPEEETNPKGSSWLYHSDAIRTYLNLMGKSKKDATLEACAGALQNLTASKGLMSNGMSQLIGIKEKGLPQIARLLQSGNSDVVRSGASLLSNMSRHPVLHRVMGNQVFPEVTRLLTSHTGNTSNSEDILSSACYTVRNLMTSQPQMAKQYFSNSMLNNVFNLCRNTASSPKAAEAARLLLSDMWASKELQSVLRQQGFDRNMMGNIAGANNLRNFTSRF
Experiment: Crosslinking/co-immunoprecipitation/mass spectrometry (TMT quantitative proteomics) to identify irisin receptors
Format: binding
Settings: co-precipitated protein Pkp1 (PKP1_MOUSE)
In short: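 Mouse MLO-Y4 cells were switched to serum-free FreeStyle medium for 4 h, chilled, then exposed to 10 nM His-tagged irisin (or adipsin as control) for 20 min. Cells were crosslinked with 1.5 mM DTSSP (30 min, ice), and bound proteins were pulled down on Ni-NTA and eluted with 250 mM imidazole. Eluates were separated by SDS-PAGE, trypsin-digested in gel, TMT 6-plex labelled and quantified by MS3-based LC-MS/MS on an Orbitrap Fusion Lumos.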

- TMT signal-to-noise ratio: 98.2846
Substance: adipsin
